Results taken from patent US20240400677A1.

Legend:
[1] = molecular target: human SIRPγ on primary human T-cells (human) (UniProt Q9P1W8); experiment: flow cytometry, naive resting human CD8+ T cells
[2] = molecular target: human SIRPγ on primary human T-cells (human) (UniProt Q9P1W8); experiment: flow cytometry, anti-CD3/CD28-stimulated human CD8+ T cells
[3] = molecular target: human SIRPγ on primary human T-cells (human) (UniProt Q9P1W8); experiment: flow cytometry, naive resting human CD3+ T cells
[4] = molecular target: human SIRPγ on primary human T-cells (human) (UniProt Q9P1W8); experiment: flow cytometry, naive resting human CD4+ T cells
[5] = molecular target: human SIRPγ on primary human T-cells (human) (UniProt Q9P1W8); experiment: flow cytometry, anti-CD3/CD28-stimulated human CD4+ T cells
[6] = molecular target: human SIRPγ on primary human T-cells (human) (UniProt Q9P1W8); experiment: flow cytometry, anti-CD3/CD28-stimulated human CD3+ T cells

Sequence of human SIRPγ on primary human T-cells (human) (Q9P1W8 29-387 limits assumed): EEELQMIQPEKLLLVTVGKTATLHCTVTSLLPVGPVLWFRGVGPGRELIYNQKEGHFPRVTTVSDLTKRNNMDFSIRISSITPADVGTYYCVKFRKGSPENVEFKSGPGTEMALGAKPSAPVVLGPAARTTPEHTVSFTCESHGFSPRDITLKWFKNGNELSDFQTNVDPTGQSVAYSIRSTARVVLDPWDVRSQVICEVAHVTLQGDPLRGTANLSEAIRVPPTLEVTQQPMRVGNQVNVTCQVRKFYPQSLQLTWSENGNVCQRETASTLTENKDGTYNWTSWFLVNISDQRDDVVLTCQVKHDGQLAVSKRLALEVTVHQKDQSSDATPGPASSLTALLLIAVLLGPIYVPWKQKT

- EC50 (read off the curve) [1]: 0.09 µg/mL
- EC50 (read off the curve) [2]: 0.1 µg/mL
- EC50 (read off the curve) [3]: 0.2 µg/mL
- EC50 (read off the curve) [4]: 0.04 µg/mL
- EC50 (read off the curve) [5]: 0.05 µg/mL
- EC50 (read off the curve) [6]: 0.4 µg/mL
Substance: mouse monoclonal antibody against human SIRPγ, clone OX-119 (ThermoFisher Scientific MA5-28215)
